# Source: the supplement of paper PMC9170038
# System: MS2 coat protein
# Test: apparent KD of MS2 coat protein; designed switch direction (-1 OFF switch, 1 ON switch): -1; higher = weaker reporter binding
# Procedure, shortened: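 Normalised cluster fluorescence was curve-fitted, and each design's median over clusters is its apparent KD. Before this, SNAP-549-labelled MS2 coat protein was titrated from 0.7 or 1.5 nM, doubling to 3 µM, over RNA switches transcribed on Illumina chips by stalled E. coli RNA polymerase. Titrations had no input, 200 uM small-molecule ligand, or an oligonucleotide input, and steps lasted 0.8–1.5 h (lowest) to 10–20 min (highest).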
# [1] = Eterna round: R95, input ligand: FMN 200 uM
# [2] = Eterna round: R95, input ligand: microRNA oligo, concentration not stated
# [3] = Eterna round: R95, input ligand: none
# [4] = input ligand: microRNA oligo, concentration not stated
Sequence,apparent KD of MS2 coat protein (input ligand: FMN 200 uM) [nM],apparent KD of MS2 coat protein (input ligand: none) [nM],apparent KD of MS2 coat protein [1] [nM],apparent KD of MS2 coat protein [2] [nM],apparent KD of MS2 coat protein [3] [nM],apparent KD of MS2 coat protein [4] [nM]
"CGUGACUAAGGAUAUACAUGAGGAUCACCCAUGUGAUUCAAGAUUUUCGACUGGAGAGGUAGAAGGUGGAUGCC [Eternabot (L1) Solution 99] (Eterna round: R97, puzzle: Exclusion 3)",63.3,94.4,–,–,–,–
CGUGACUCAGGAUAUCUAUAAUAUCACAUGAGGAUCACCCAUGUCCAGCGAAAGCUGGAGAGAGAAGGGAGUCACG [Fiskers Ex 5 - 36] (puzzle: Exclusion 5),–,–,67.7,67.3,61.5,–
CGUGACUGAGGAUAUCUAUAAUGUCACAUGAGGAUCACCCAUGUCCAGCGAAAGCUGGAGGGAGAAGGCAGUCACG [Fiskers Ex 5 - 33] (puzzle: Exclusion 5),–,–,29.4,55.5,74.6,–
CGUGCGUAUGUGAGGAUAUGCUGGUCCUUGGAUCGGCAGAAGGCACAUGAGGAUCACCCAUGUGGUGUCGUCCA [salish99_Bmod_ex4_089] (puzzle: Brourd's mod of Exclusion 4),–,–,–,85.7,–,–
"CGUGGCCAAGGAUAUGGGUAUCAUGACAUGAGGAUCACCCAUGUAUAGAGGAUCCAUAGCCCAGAAGGUGGUCCGG [Eternabot (L1) Solution 85] (Eterna round: R97, puzzle: Exclusion 5)",44,17,–,–,–,–
"CGUGUGUCAGGAUAUUAGUAAUGUAUGGAUACAUAUAUUACUGAGAAGGGACAUGAGGAUCACCCAUGUAUACG [JR_Ex4_Sub059] (Eterna round: R97, puzzle: Exclusion 4)",158,79.9,–,–,–,–
"CGUUCGCGAGGAUAUGCAUUCGAGUCCACUACGUGUCUGGGACUUGAGGAUCACCCAAGUAGAAGGCGCCUCAA [salish99_ex2_r4_651] (Eterna round: R97, puzzle: Exclusion 2)",171,230,–,–,–,–
"CGUUGUCAAGGAUAUAUAGAGCUAUACAUGAGGAUCACCCAUGUGGUUAGUGUUGUGUGAGUAGAAGGUGGAAUGU [Eternabot (L2) Solution 99] (Eterna round: R97, puzzle: Exclusion 5)",84.3,224,–,–,–,–
"CUAAAAGUGAUCACAGGAACAUGAGGAUCACCCAUGUGCCUCAAGGAUAUGCACGGCUAUCCAGGGUAGAAGGUGAGAAUGCAC [Eternabot solution 30] (Eterna round: R96, puzzle: Exclusion NG 3)",68.3,100,–,–,–,104
"CUAAAUCAUGUAGGAUAUGCAUAGCGAAGCUAUGCAGAAGGACAUGAGGAUCACCCAUGUUCUUCCGUCUGCGUACAGACGGAA [Mat - Exclusion NG 1 - Mod of JL - D30] (Eterna round: R96, puzzle: Exclusion NG 1)",268,33.5,–,–,–,32.4
"CUAAAUCAUGUAGGAUAUGCGUGGCGAAGCUAUGCAGAAGGACAUGAGGAUCACCCAUGUGCUUCCGUCUGCGUACAGACGGAA [JL ENG1 1.17] (Eterna round: R96, puzzle: Exclusion NG 1)",328,255,–,–,–,222
"CUAACAUGCUGGUGAUCAUACAUGAGGAUCACCCAUGUAACAAGCUUUUUGUUCGUCUUAAUUUAAUUGAUUACUAG [Stov1/8-B3] (Eterna round: R97, puzzle: Sensor, turn-off variant 1)",177,254,–,–,–,–
"CUAAUACAUCAGGAUAUGAUAGCCUAUAGCAUAUCAGAAGGGAUGACAUGAGGAUCACCCAUGUCAAAGGGUGA [eternacac ex6r4 sub19] (Eterna round: R97, puzzle: Exclusion 6)",396,444,–,–,–,–
"CUAGAUCUUCGGAUCUAGUACAUGAGGAUCACCCAUGUGACGAGUUACAUGAAAAACAAGCUUUUUGCUCGUCUUAU [Sensor v3 - Turn-off variant 1 - 8] (puzzle: Sensor v3, turn-off variant 1)",–,–,41.6,102,46.6,–
"CUAGCGAAUGUAGGAUAUCGGACUGUUUCAGUCUGAGAAGGACAUGAGGAUCACCCAUGUAUAGCUACGUGAGUAGCUCGCUAG [JL ENG1 3.91] (Eterna round: R96, puzzle: Exclusion NG 1)",43.6,17.1,–,–,–,13
CUAGUCCGAGGAUAUAUAUUGUGAAACAUGAGGAUCACCCAUGUUAUAAUAUGGAAAUAAAUAGAAGGCGGACUAG [Mat - Exclusion 5 - JL mod - D57] (puzzle: Exclusion 5),–,–,23.3,38.5,18.8,–
CUAGUCCGAGGAUAUAUUAUGUGAAACAUGAGGAUCACCCAUGUUAUAUGAUGGAUGAAAAUAGAAGGCGGACUAG [Mat - Exclusion 5 - JL mod - D61] (puzzle: Exclusion 5),–,–,20.4,72.8,88.1,–

Sequence,apparent KD of MS2 coat protein (input ligand: FMN 200 uM) [nM],apparent KD of MS2 coat protein (input ligand: none) [nM],apparent KD of MS2 coat protein [1] [nM],apparent KD of MS2 coat protein [2] [nM],apparent KD of MS2 coat protein [3] [nM],apparent KD of MS2 coat protein [4] [nM]
CUAGUCCGAGGAUAUAUUAUGUGAUACAUGAGGAUCACCCAUGUUAUAUGAUGGAUGUUAAUAGAAGGCGGACUAG [Mat - Exclusion 5 - JL mod - D72] (puzzle: Exclusion 5),–,–,246,118,110,–
"CUAUAGUAUGUAGGAUAUCGGUCAGUUUCUGAUCGAGAAGGACAUGAGGAUCACCCAUGUAAGGCUACCGGUUUCUGGUGGCCG [JL ENG1 3.54] (Eterna round: R96, puzzle: Exclusion NG 1)",61.6,23.6,–,–,–,18.5
CUAUUCCGAGGAUAUACAUGAGGAUCACCCAUGUCGGGCCUCCGCGUUUAGCGCCUCAGUAGAAGGCGGGUUUC [JL Riri mod 2] (puzzle: Exclusion 3),–,–,–,17.2,–,–
"CUCAGUGGUGAGGAUAUGCGCGCCCAAUGGACGGUAGAAGGUACUACAUGAGGAUCACCCAUGUAGCGAAGAUU [Eternabot (L1) Solution 49] (Eterna round: R97, puzzle: Exclusion 6)",15.9,15.8,–,–,–,–
"CUCCGGCCUGUAGGAUAUGGAUCCGAUUAGGAUCCAGAAGGACAUGAGGAUCACCCAUGUACAUGUAAACAGUCAUCACCGGAC [salish99_ExNG1_r04_203] (Eterna round: R96, puzzle: Exclusion NG 1)",23.8,16.7,–,–,–,15.2
"CUCCGGCGUGUAGGAUAUGGUUCCGUUUCGGUUCCAGAAGGACAUGAGGAUCACCCAUGUACCUGUCGUCGGUCGUCACCGGGC [salish99_ExNG1_r04_216] (Eterna round: R96, puzzle: Exclusion NG 1)",12.4,16.4,–,–,–,13.2
"CUCGUGCAGCAAAGCUGUACGAGUACAUGAGGAUCACCCAUGUAGGAUAUGGUACGCUUUGCGUGCUAGAAGGAUAUGUGUAGG [Mat - Exclusion NG 3 - Mod of JL - D86] (Eterna round: R96, puzzle: Exclusion NG 3)",37.5,36.1,–,–,–,24.1
"CUCGUGCAGCUUUGCUGUACGAGUACAUGAGGAUCACCCAUGUAGGAUAUGGUACGCUUUGCGUGCCAGAAGGACGUGUGUUUG [JL EXNG3 1.40] (Eterna round: R96, puzzle: Exclusion NG 3)",221,39.4,–,–,–,27.6
"CUCGUGUAAGGAUAUACGAGUCACGGAAAUAAAACGUGAAGGUAGAAGGUACAUGAGGAUCACCCAUGUAAAAC [Mod of Anonveat 2 - Jieux - Exclusion 4] (Eterna round: R97, puzzle: Exclusion 4)",209,29.8,–,–,–,–
CUCUUGGCAGGAUAUGCUCUUUUAGACAUGAGGAUCACCCAUGUGCUCAUUCCUUCUUUUGCAGAAGGGCCUUAAC [JR_E5_Sub048] (puzzle: Exclusion 5),–,–,–,63.8,–,–
CUCUUGUGAGGAUAUCAGGUGUGCUAGCGUACUGGUACAUCUGAGAAGGCACAUGAGGAUCACCCAUGUUUCUU [JL-ex4-3.21 Brourd mod] (puzzle: Exclusion 4),–,–,–,78.1,–,–
CUCUUGUUAGGAUAUCAAACCGGCAGCGGAGCCGCCGGAAGUGAGAAGGGACAUGAGGAUCACCCAUGUAAGAA [Quatdior] (puzzle: Exclusion 4),–,–,–,58.9,–,–
"CUGAACCCGGUAGGAUAUAUUGUGGGCAAACAUGGAACAACAUGAGGAUCACCCAUGUAAUUUAGGUAGAAGGGCCAAAAGAUU [Excl-NG2-LRO07] (Eterna round: R96, puzzle: Exclusion NG 2)",77.9,74.2,–,–,–,50.4
"CUGAGAAUAGGAUAUACUAACAAUGGAGUAGCUUCACGUCAACAUGAGGAUCACCCAUGUAGAAGGGUUAGCGG [Eternabot (L1) Solution 33] (Eterna round: R97, puzzle: Exclusion 2)",25,30,–,–,–,–
"CUGAGCAGACGGAGAUCCAACAUGAGGAUCACCCAUGUCUCAAAAGCUUAUUGCUCGUCUUAUCCUCCUCUGUUCAC [Mat - Sensor, turn-off var - Eli Mod - D54] (Eterna round: R97, puzzle: Sensor, turn-off variant 1)",26.9,26.7,–,–,–,–
"CUGAGCAGACGGAGAUCCAACAUGAGGAUCACCCAUGUCUCAAAAGCUUUUUGCUCGCCUUAUCCUCCUCUGUUCUC [Ererququce] (puzzle: Sensor v3, turn-off variant 1)",–,–,34.8,208,36.6,–
